Legend:
[1] = tested on: T cell line of each patient specifically recognizing Cry j 1 or Cry j 2; assay: T cell line proliferation response to overlapping peptides ([3H] thymidine uptake); type: cell-based, human; conditions: 18 patients with cedar pollinosis; stimulation index 2 or more
Description: Peripheral lymphocytes from 18 patients with cedar pollinosis were stimulated by cedar pollen allergen Cry j 1 or Cry j 2to establish the T cell line of each patient capable of specifically recognizing the respective allergen.
A mixture of 5×10^4 cells of the autologous B cell line treated with mitomycin C, 2 μM of an overlapping peptide, and 2×10^4 cells of the T cell line was incubated for 2 days in RPMI-1640 medium supplemented with 0.2 ml of 15% serum on a 96-well culture plate. After 0.5 μCi [^3H] thymidine was added to the medium, incubation was continued for a further 18 hours. After the cells were harvested on a glass filter using a cell harvester, the level of [^3H] thymidine taken up into the cells was determined with a liquid scintillation counter. If the stimulation index is 2 or more, we consider that the added peptide is recognized as an antigenic peptide. The stimulation index means a value obtained by dividing the level of [^3H] thymidine taken up into the cells when the peptide was added by the level of [^3H] thymidine taken up into the cells when no peptide was added.
The HLA class II type is considered to vary in every patient. It is thus assumed that a T cell epitope to be recognized would vary depending on the HLA class II type. For this reason, the antigenic peptide that the patients recognized was mapped for the individual patient. […] On the allergen molecule, there are both regions that can be readily recognized and regions that can hardly be recognized, as a T cell epitope, depending on individuals. Moreover, since the proliferation rate of T cells varies depending on a T cell epitope, the epitope map alone makes it difficult to determine what antigenic peptide should be chosen to design the multi-epitope peptide.

human IgE antibody = assay: Reactivity of the multi-epitope peptides with human IgE antibody (fluorescence plate assay); type: binding
Description: (§1) The six multi-epitope peptides (C.A.#1 through C.A.#6) obtained in Example 6 were dissolved in 0.2 M acetate buffer solution (pH 4.5). The solution was dispensed in quantities of 0.1 ml/well in a black plate (manufactured by Dainihon Pharmaceutical Co., Ltd.) then allowed to stand at 4° C. overnight. After the antigen solution was removed, the wells were washed three times with a washing solution and the serum (4-fold dilution) from 29 patients with cedar pollinosis and healthy subjects were each added to separate wells. The system was then reacted at 37° C. for 4 hours. After the sera were removed, the wells were washed three times with a washing solution then reacted with anti-human IgE antibody (made by Pharmacia Inc.) at room temperature overnight. After washing three times with a washing solution, a substrate solution containing 0.1 mM 4-methylumbelliferyl-, β-D-galacto-pyranoside/0.01 M phosphate buffer (pH 7.0), 0.1 M NaCl, 1 mM MgCl2, 0.1% NaN, and 0.1% BSA was added, and the solution was incubated at 37° C. for 2 hours. A solution of 0.1 M glycine/NaOH (pH 10.3) was added to the wells to terminate the reaction. Fluorescent intensity was measured using a fluorophotometer (Labsystems). For positive control to each multi-epitope peptide, biotin-labeled rabbit anti-d epitope IgG and peroxidase-labeled streptoavidin (made by Pierce Inc.) were reacted.

[2] = tested on: rabbit anti-d epitope IgG; assay: Positive control reactivity with rabbit anti-d epitope IgG; type: binding; conditions: blank: 112
Description: as §1

CBF1 mice = assay: Inducing immune tolerance by administering cedar pollen allergen to mice; type: in vivo; conditions: 300 μg/mouse s.c. twice, then sensitized with 100 μg Cry j 1 + Alum; compared to PBS control group
Description: The detailed mechanism in hyposensitization therapy by which cedar pollen allergen is administered for the treatment is yet unknown. To clarify this mechanism, tests were conducted using mice. Cedar pollen allergen Cry j 1 was subcutaneously administered twice to five CBF1 female mice at intervals of 5 days in a dose of 300 μg/mouse. For control, the same dose of PBS was subcutaneously given to five other female mice. Five days later, the animals were sensitized by subcutaneous injection of 100 μg Cry j 1 together with Alum adjuvant. Ten days later, the lymphocytes were isolated to pool them as the lymphocytes from the control group and as the lymphocytes from the Cry j 1-administered mice. Cry j 1 was added to the pooled lymphocytes in doses of 0, 50 and 150 μg/ml. Incubation was performed for 3 days to collect the culture supernatant. In the control (PBS-administered) mouse group, IL-2 production increased as the concentration of Cry j 1 increased from 0 to 50 and 150 μg/ml. […] The results verify that currently implemented hyposensitization therapy using the cedar pollen allergen is efficacious.

[3] = tested on: spleen cells of CBF1 mice immunized with rCry j 2; assay: Identifying T cell epitopes in CBF1 mice (spleen cell [3H] thymidine uptake); type: cell-based, mouse; conditions: peptides 0.115 μM; Cry j 1 50 μg/ml; rCry j 2 0.3 μg/ml
Description: Eight-week-old male CBF1 mice were boosted (i.p.) three times with 10 μg of recombinant Cry j 2 (rCry j 2) at intervals of two weeks together with an adjuvant (Imject Alum, manufactured by Pierce Inc.). One week after the final booster, the spleen cells (5×10^6 cells) were cultured together with each of the 74 kinds of Cry j 2 overlapping peptides (0.115 μM) consisting of 15 residues in 0.2 ml RPMI medium (supplemented with 10% FCS, 2 mM L-glutamine, 50 U/ml penicillin and 50 μg/ml streptomycin) in each well of a 96-well plate(manufactured by Falcon Inc.). For control, the reactivities with PBS, 50 μg/ml of Cry j 1, and 0.3 μg/ml of rCry j 2 were also observed. Each reagent was distributed in three wells and incubated at 37° C. for 3 days in 5% CO2. For the last 6 hours, pulse labeling was performed with 0.5 μCi/well of [^3H] thymidine. The cells were collected on a glass filter using a cell harvester (Inoteck, Bertold Japan Co., Ltd.). After drying, the level of [^3H] thymidine taken up into the cells was determined using a liquid scintillation counter (TRI-CARB 4530, Packard Japan KK).

B1: Cry j 1: major cedar pollen allergen, 353 amino acids, extracted and purified from cedar pollen (protein)
chain: DNPIDSCWRGDSNWAQNRMKLADCAVGFGSSTMGGKGGDLYTVTNSDDDPVNPAPGTLRYGATRDRPLWIIFSGNMNIKLKMPMYIAGYKTFDGRGAQVYIGNGGPCVFIKRVSNVIIHGLYLYGCSTSVLGNVLINESFGVEPVHPQDGDALTLRTATNIWIDHNSFSNSSDGLVDVTLTSTGVTISNNLFFNHHKVMLLGHDDAYSDDKSMKVTVAFNQFGPNCGQRMPRARYGLVHVANNNYDPWTIYAIGGSSNPTILSEGNSFTAPNESYKKQVTIRIGCKTSSSCSNWVWQSTQDVFYNGAYFVSSGKYEGGNIYTKKEAFNVENGNATPQLTKNAGVLTCSLSKRC
number of T cell epitopes on the molecule that each patient recognized, average [1]: 9.8
fluorescent intensity (human IgE reactivity) (human IgE antibody; 14 subjects of 29): ≥ 100
fluorescent intensity (human IgE reactivity) (human IgE antibody; five subjects of 29): nine
fluorescent intensity (human IgE reactivity) (human IgE antibody; four subjects of 29): ≥ 10
fluorescent intensity (human IgE reactivity) (human IgE antibody; six subjects of 29): ≥ 1,000
fluorescent intensity with rabbit anti-d epitope peptide IgG [2]: 230
IL-2 production of lymphocytes restimulated with Cry j 1 (CBF1 mice): obviously reduced
reactivity of spleen cells ([3H] thymidine uptake) [3]: did not react

Source: US6719976B1, “Peptide-based immunotherapeutic agent for treating allergic diseases” (Meiji Milk Products Co., Ltd., priority 1996, dated 2004)
